The values below come from the supplement of paper PMC10567573.

The chains are these.
B1: FBF1 (parent)
chain: LQRASILDMRRDHEEQLQRLKLLK
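Further: lentivirally expressed fusions sorted by FACS into six bins by GFP to DsRed ratio, PSI derived from sequencing read proportions per bin multiplied by bin number.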

The variants in the series derive from B1. As to the kind of experiment: protein stability index of a GFP-peptide fusion (GPS, HEK-293T) (PSI 1-6); higher = more stable. Conditions: c terminus: a fixed tail appended.
In the case of LQRASILDMRRDHEIQLQRLKLLK, the protein stability index is 2.37. For LQRASILDMRRDHEVQLQRLKLLK the value was 3.13; for LQRASILDMRRDHELQLQRLKLLK, 2.56.

In the case of LQRASILDMRRDHEDQLQRLKLLK, the protein stability index amounted to 3.34. As for LQRASILDMRRDHEWQLQRLKLLK, the figure is 2.29; as for LQRASILDMRRDHENQLQRLKLLK, 2.91. For LQRASILDMRRDHEYQLQRLKLLK the value was 2.84; for LQRASILDMRRDHEPQLQRLKLLK, 3.22; for LQRASILDMRRDHESQLQRLKLLK, 2.96.

For LQRASILDMRRDHERQLQRLKLLK, the protein stability index was 3.22. Consider LQRASILDMRRDHEHQLQRLKLLK, for which the protein stability index stood at 3.09.

Take LQRASILDMRRDHEFQLQRLKLLK: the protein stability index was determined as 2.68. Turning to LQRASILDMRRDHEAQLQRLKLLK, the protein stability index was determined as 3.4. For the variant LQRASILDMRRDHEMQLQRLKLLK, the protein stability index was found to be 3.12. LQRASILDMRRDHETQLQRLKLLK: the protein stability index is 3.39. Turning to LQRASILDMRRDHEQQLQRLKLLK, the protein stability index worked out at 3.18.

In the case of LQRASILDMRRDHECQLQRLKLLK, the protein stability index is 2.5. Turning to LQRASILDMRRDHEKQLQRLKLLK, the protein stability index is 3.04.

In the case of LQRASILDMRRDHEGQLQRLKLLK, the protein stability index amounted to 3.56.

For LQRASILDMRRDHVEQLQRLKLLK, the protein stability index worked out at 2.69. For the variant LQRASILDMRRDHLEQLQRLKLLK, the protein stability index was determined as 3.17. As for LQRASILDMRRDHGEQLQRLKLLK, the figure is 3.12; as for LQRASILDMRRDHNEQLQRLKLLK, 2.86; as for LQRASILDMRRDHAEQLQRLKLLK, 3.32. Turning to LQRASILDMRRDHQEQLQRLKLLK, the protein stability index came to 3.49. For LQRASILDMRRDHYEQLQRLKLLK the value was 3.04; for LQRASILDMRRDHHEQLQRLKLLK, 3.13.

Regarding LQRASILDMRRDHDEQLQRLKLLK, the protein stability index worked out at 3.6.

Regarding LQRASILDMRRDHWEQLQRLKLLK, the protein stability index was 2.69. Consider LQRASILDMRRDHMEQLQRLKLLK, for which the protein stability index stood at 2.56.

On to LQRASILDMRRDHCEQLQRLKLLK, for which the protein stability index turned out to be 2.79.

On to LQRASILDMRRDHREQLQRLKLLK, for which the protein stability index is 2.98. Regarding LQRASILDMRRDHSEQLQRLKLLK, the protein stability index is 2.95.

For the variant LQRASILDMRRDHIEQLQRLKLLK, the protein stability index worked out at 3.08.

LQRASILDMRRDHPEQLQRLKLLK: the protein stability index was found to be 2.82. As for LQRASILDMRRDHKEQLQRLKLLK, the figure is 3.43; as for LQRASILDMRRDHFEQLQRLKLLK, 2.38; as for LQRASILDMRRDHTEQLQRLKLLK, 2.96.

Consider LQRASILDMRRDHEEQHQRLKLLK, for which the protein stability index came to 4. For the variant LQRASILDMRRDHEEQDQRLKLLK, the protein stability index came out at 4.23.

As for LQRASILDMRRDHEEQVQRLKLLK, the protein stability index amounted to 3.87. Take LQRASILDMRRDHEEQTQRLKLLK: the protein stability index amounted to 4.19. As for LQRASILDMRRDHEEQAQRLKLLK, the figure is 3.9; as for LQRASILDMRRDHEEQFQRLKLLK, 3.17. Turning to LQRASILDMRRDHEEQPQRLKLLK, the protein stability index was 4.63.

Regarding LQRASILDMRRDHEEQSQRLKLLK, the protein stability index was 3.77.

Consider LQRASILDMRRDHEEQCQRLKLLK, for which the protein stability index was 3.55.

On to LQRASILDMRRDHEEQEQRLKLLK, for which the protein stability index was 4.07. In the case of LQRASILDMRRDHEEQGQRLKLLK, the protein stability index came out at 4.03. As to LQRASILDMRRDHEEQKQRLKLLK, the protein stability index was determined as 4.05. As for LQRASILDMRRDHEEQMQRLKLLK, the figure is 3.72. Take LQRASILDMRRDHEEQIQRLKLLK: the protein stability index amounted to 3.91. Regarding LQRASILDMRRDHEEQRQRLKLLK, the protein stability index was 3.54. On to LQRASILDMRRDHEEQQQRLKLLK, for which the protein stability index stood at 4.52. As for LQRASILDMRRDHEEQNQRLKLLK, the figure is 3.91; as for LQRASILDMRRYHEEQLQRLKLLK, 3.37; as for LQRASILDMRRDHEEGLQRLKLLK, 4.09.

Take LQRASILDMRRDHEEMLQRLKLLK: the protein stability index came to 1.38. For LQRASILDMRRDHEEFLQRLKLLK the value was 1.73; for LQRASILDMRRDHEEWLQRLKLLK, 2.97. As to LQRASILDMRRDHEENLQRLKLLK, the protein stability index turned out to be 3.48. For LQRASILDMRRDHEECLQRLKLLK the value was 3.09; for LQRASILDMRRDHEEELQRLKLLK, 3.64. With LQRASILDMRRDHEEPLQRLKLLK, the protein stability index was 3.51.

For the variant LQRASILDMRRDHEEKLQRLKLLK, the protein stability index amounted to 3.61. For LQRASILDMRRDHEEALQRLKLLK the value was 3.18; for LQRASILDMRRDHEEYLQRLKLLK, 2.75. As for LQRASILDMRRDHEESLQRLKLLK, the protein stability index stood at 3.43.

Turning to LQRASILDMRRDHEETLQRLKLLK, the protein stability index is 3.45. As for LQRASILDMRRDHEELLQRLKLLK, the figure is 2.73; as for LQRASILDMRRDHEERLQRLKLLK, 2.77; as for LQRASILDMRRDHEEDLQRLKLLK, 4.02. With LQRASILDMRRDHEEVLQRLKLLK, the protein stability index came out at 3.04. As for LQRASILDMRRDHEEHLQRLKLLK, the figure is 2.64; as for LQRASILDMRRDHEEILQRLKLLK, 2.28; as for LQRASILDMRRDGEEQLQRLKLLK, 3.25.

Consider LQRASILDMRRDEEEQLQRLKLLK, for which the protein stability index was found to be 4.15. LQRASILDMRRDIEEQLQRLKLLK: the protein stability index amounted to 2.54. As for LQRASILDMRRDKEEQLQRLKLLK, the figure is 2.68; as for LQRASILDMRRDDEEQLQRLKLLK, 3.69; as for LQRASILDMRRDYEEQLQRLKLLK, 2.83. LQRASILDMRRDMEEQLQRLKLLK: the protein stability index came to 3.13.

Turning to LQRASILDMRRDPEEQLQRLKLLK, the protein stability index turned out to be 3.33. For LQRASILDMRRDSEEQLQRLKLLK the value was 3.84. Regarding LQRASILDMRRDREEQLQRLKLLK, the protein stability index was found to be 3.19. In the case of LQRASILDMRRDAEEQLQRLKLLK, the protein stability index came to 3.89. On to LQRASILDMRRDLEEQLQRLKLLK, for which the protein stability index stood at 2.36.

In the case of LQRASILDMRRDWEEQLQRLKLLK, the protein stability index came to 2.38.

Regarding LQRASILDMRRDQEEQLQRLKLLK, the protein stability index was determined as 3.4. Take LQRASILDMRRDCEEQLQRLKLLK: the protein stability index came out at 2.2. LQRASILDMRRDFEEQLQRLKLLK: the protein stability index was 3.17. Regarding LQRASILDMRRDTEEQLQRLKLLK, the protein stability index is 3.27. For the variant LQRASILDMRRDNEEQLQRLKLLK, the protein stability index is 3.95.

With LQRASILDMRRDVEEQLQRLKLLK, the protein stability index turned out to be 2.46.
